Values of other authors in patent publication US10906951B2, “Modified natural killer cells and natural killer cell lines having increased cytotoxicity” (ONK THERAPEUTICS LIMITED, priority 2015, dated 2021).

B1: N199R: TRAIL DR4 variant, WO 2009/066174 (protein, UniProt P50591 1-281, looked up, variant N199R)
Tumor necrosis factor ligand …: MAMMEVQGGPSLGQTCVLIVIFTVLLQSLCVAVTYVYFTNELKQMQDKYSKSGIACFLKEDDSYWDPNDEESMNSPCWQVKWQLRQLVRKMILRTSEETISTVQEKQQNISPLVRERGPQRVAAHITGTRGRSNTLSSPNSKNEKALGRKINSWESSRSGHSFLSNLHLRNGELVIHEKGFYYIYSQTYFRFQEEIKERTKNDKQMVQYIYKYTSYPDPILLMKSARNSCWSKDAEYGLYSIYQGGIFELKENDRIFVSVTNEHLIDMDHEASFFGAFLVG
B2: G131R: TRAIL DR4 variant, WO 2009/066174 (protein, UniProt P50591 1-281, looked up, variant G131R)
Tumor necrosis factor ligand …: MAMMEVQGGPSLGQTCVLIVIFTVLLQSLCVAVTYVYFTNELKQMQDKYSKSGIACFLKEDDSYWDPNDEESMNSPCWQVKWQLRQLVRKMILRTSEETISTVQEKQQNISPLVRERGPQRVAAHITGTRRRSNTLSSPNSKNEKALGRKINSWESSRSGHSFLSNLHLRNGELVIHEKGFYYIYSQTYFRFQEEIKENTKNDKQMVQYIYKYTSYPDPILLMKSARNSCWSKDAEYGLYSIYQGGIFELKENDRIFVSVTNEHLIDMDHEASFFGAFLVG
B3: K204E: TRAIL DR4 variant, WO 2009/066174 (protein, UniProt P50591 1-281, looked up, variant K204E)
Tumor necrosis factor ligand …: MAMMEVQGGPSLGQTCVLIVIFTVLLQSLCVAVTYVYFTNELKQMQDKYSKSGIACFLKEDDSYWDPNDEESMNSPCWQVKWQLRQLVRKMILRTSEETISTVQEKQQNISPLVRERGPQRVAAHITGTRGRSNTLSSPNSKNEKALGRKINSWESSRSGHSFLSNLHLRNGELVIHEKGFYYIYSQTYFRFQEEIKENTKNDEQMVQYIYKYTSYPDPILLMKSARNSCWSKDAEYGLYSIYQGGIFELKENDRIFVSVTNEHLIDMDHEASFFGAFLVG
B4: G131R/R149I/S159R/S215D: 4C9, a DR4-specific TRAIL variant; DNA sequence SEQ ID NO: 14 (protein, listed as Homo sapiens)
chain: MAMMEVQGGPSLGQTCVLIVIFTVLLQSLCVAVTYVYFTNELKQMQDKYSKSGIACFLKEDDSYWDPNDEESMNSPCWQVKWQLRQLVRKMILRTSEETISTVQEKQQNISPLVRERGPQRVAAHITGTRRRSNTLSSPNSKNEKALGIKINSWESSRRGHSFLSNLHLRNGELVIHEKGFYYIYSQTYFRFQEEIKENTKNDKQMVQYIYKYTDYPDPILLMKSARNSCWSKDAEYGLYSIYQGGIFELKENDRIFVSVTNEHLIDMDHEASFFGAFLVG
B5: K204Y: TRAIL DR4 variant, WO 2009/066174 (protein, UniProt P50591 1-281, looked up, variant K204Y)
Tumor necrosis factor ligand …: MAMMEVQGGPSLGQTCVLIVIFTVLLQSLCVAVTYVYFTNELKQMQDKYSKSGIACFLKEDDSYWDPNDEESMNSPCWQVKWQLRQLVRKMILRTSEETISTVQEKQQNISPLVRERGPQRVAAHITGTRGRSNTLSSPNSKNEKALGRKINSWESSRSGHSFLSNLHLRNGELVIHEKGFYYIYSQTYFRFQEEIKENTKNDYQMVQYIYKYTSYPDPILLMKSARNSCWSKDAEYGLYSIYQGGIFELKENDRIFVSVTNEHLIDMDHEASFFGAFLVG
B6: K212R: TRAIL DR4 variant, WO 2009/066174 (protein, UniProt P50591 1-281, looked up, variant K212R)
Tumor necrosis factor ligand …: MAMMEVQGGPSLGQTCVLIVIFTVLLQSLCVAVTYVYFTNELKQMQDKYSKSGIACFLKEDDSYWDPNDEESMNSPCWQVKWQLRQLVRKMILRTSEETISTVQEKQQNISPLVRERGPQRVAAHITGTRGRSNTLSSPNSKNEKALGRKINSWESSRSGHSFLSNLHLRNGELVIHEKGFYYIYSQTYFRFQEEIKENTKNDKQMVQYIYRYTSYPDPILLMKSARNSCWSKDAEYGLYSIYQGGIFELKENDRIFVSVTNEHLIDMDHEASFFGAFLVG
B7: G131R/N199R/K201H: TRAIL DR4 variant, WO 2009/066174 (protein, UniProt P50591 1-281, looked up, variant G131R N199R K201H)
Tumor necrosis factor ligand …: MAMMEVQGGPSLGQTCVLIVIFTVLLQSLCVAVTYVYFTNELKQMQDKYSKSGIACFLKEDDSYWDPNDEESMNSPCWQVKWQLRQLVRKMILRTSEETISTVQEKQQNISPLVRERGPQRVAAHITGTRRRSNTLSSPNSKNEKALGRKINSWESSRSGHSFLSNLHLRNGELVIHEKGFYYIYSQTYFRFQEEIKERTHNDKQMVQYIYKYTSYPDPILLMKSARNSCWSKDAEYGLYSIYQGGIFELKENDRIFVSVTNEHLIDMDHEASFFGAFLVG
B8: K204L: TRAIL DR4 variant, WO 2009/066174 (protein, UniProt P50591 1-281, looked up, variant K204L)
Tumor necrosis factor ligand …: MAMMEVQGGPSLGQTCVLIVIFTVLLQSLCVAVTYVYFTNELKQMQDKYSKSGIACFLKEDDSYWDPNDEESMNSPCWQVKWQLRQLVRKMILRTSEETISTVQEKQQNISPLVRERGPQRVAAHITGTRGRSNTLSSPNSKNEKALGRKINSWESSRSGHSFLSNLHLRNGELVIHEKGFYYIYSQTYFRFQEEIKENTKNDLQMVQYIYKYTSYPDPILLMKSARNSCWSKDAEYGLYSIYQGGIFELKENDRIFVSVTNEHLIDMDHEASFFGAFLVG
B9: S215E: TRAIL DR4 variant, WO 2009/066174 (protein, UniProt P50591 1-281, looked up, variant S215E)
Tumor necrosis factor ligand …: MAMMEVQGGPSLGQTCVLIVIFTVLLQSLCVAVTYVYFTNELKQMQDKYSKSGIACFLKEDDSYWDPNDEESMNSPCWQVKWQLRQLVRKMILRTSEETISTVQEKQQNISPLVRERGPQRVAAHITGTRGRSNTLSSPNSKNEKALGRKINSWESSRSGHSFLSNLHLRNGELVIHEKGFYYIYSQTYFRFQEEIKENTKNDKQMVQYIYKYTEYPDPILLMKSARNSCWSKDAEYGLYSIYQGGIFELKENDRIFVSVTNEHLIDMDHEASFFGAFLVG
B10: K204D: TRAIL DR4 variant, WO 2009/066174 (protein, UniProt P50591 1-281, looked up, variant K204D)
Tumor necrosis factor ligand …: MAMMEVQGGPSLGQTCVLIVIFTVLLQSLCVAVTYVYFTNELKQMQDKYSKSGIACFLKEDDSYWDPNDEESMNSPCWQVKWQLRQLVRKMILRTSEETISTVQEKQQNISPLVRERGPQRVAAHITGTRGRSNTLSSPNSKNEKALGRKINSWESSRSGHSFLSNLHLRNGELVIHEKGFYYIYSQTYFRFQEEIKENTKNDDQMVQYIYKYTSYPDPILLMKSARNSCWSKDAEYGLYSIYQGGIFELKENDRIFVSVTNEHLIDMDHEASFFGAFLVG
B11: G131R/N199R/K201H/R149I/S159R/S215D: TRAIL DR4 variant, WO 2009/066174 (protein, UniProt P50591 1-281, looked up, variant G131R N199R K201H R149I S159R S215D)
Tumor necrosis factor ligand …: MAMMEVQGGPSLGQTCVLIVIFTVLLQSLCVAVTYVYFTNELKQMQDKYSKSGIACFLKEDDSYWDPNDEESMNSPCWQVKWQLRQLVRKMILRTSEETISTVQEKQQNISPLVRERGPQRVAAHITGTRRRSNTLSSPNSKNEKALGIKINSWESSRRGHSFLSNLHLRNGELVIHEKGFYYIYSQTYFRFQEEIKERTHNDKQMVQYIYKYTDYPDPILLMKSARNSCWSKDAEYGLYSIYQGGIFELKENDRIFVSVTNEHLIDMDHEASFFGAFLVG
B12: K201R: TRAIL DR4 variant, WO 2009/066174 (protein, UniProt P50591 1-281, looked up, variant K201R)
Tumor necrosis factor ligand …: MAMMEVQGGPSLGQTCVLIVIFTVLLQSLCVAVTYVYFTNELKQMQDKYSKSGIACFLKEDDSYWDPNDEESMNSPCWQVKWQLRQLVRKMILRTSEETISTVQEKQQNISPLVRERGPQRVAAHITGTRGRSNTLSSPNSKNEKALGRKINSWESSRSGHSFLSNLHLRNGELVIHEKGFYYIYSQTYFRFQEEIKENTRNDKQMVQYIYKYTSYPDPILLMKSARNSCWSKDAEYGLYSIYQGGIFELKENDRIFVSVTNEHLIDMDHEASFFGAFLVG
B13: G131R/D218H: TRAIL DR4 variant, WO 2009/066174 (protein, UniProt P50591 1-281, looked up, variant G131R D218H)
Tumor necrosis factor ligand …: MAMMEVQGGPSLGQTCVLIVIFTVLLQSLCVAVTYVYFTNELKQMQDKYSKSGIACFLKEDDSYWDPNDEESMNSPCWQVKWQLRQLVRKMILRTSEETISTVQEKQQNISPLVRERGPQRVAAHITGTRRRSNTLSSPNSKNEKALGRKINSWESSRSGHSFLSNLHLRNGELVIHEKGFYYIYSQTYFRFQEEIKENTKNDKQMVQYIYKYTSYPHPILLMKSARNSCWSKDAEYGLYSIYQGGIFELKENDRIFVSVTNEHLIDMDHEASFFGAFLVG
B14: N199H/K201R: TRAIL DR4 variant, WO 2009/066174 (protein, UniProt P50591 1-281, looked up, variant N199H K201R)
Tumor necrosis factor ligand …: MAMMEVQGGPSLGQTCVLIVIFTVLLQSLCVAVTYVYFTNELKQMQDKYSKSGIACFLKEDDSYWDPNDEESMNSPCWQVKWQLRQLVRKMILRTSEETISTVQEKQQNISPLVRERGPQRVAAHITGTRGRSNTLSSPNSKNEKALGRKINSWESSRSGHSFLSNLHLRNGELVIHEKGFYYIYSQTYFRFQEEIKEHTRNDKQMVQYIYKYTSYPDPILLMKSARNSCWSKDAEYGLYSIYQGGIFELKENDRIFVSVTNEHLIDMDHEASFFGAFLVG
B15: N199R/K201H: TRAIL DR4 variant, WO 2009/066174 (protein, UniProt P50591 1-281, looked up, variant N199R K201H)
Tumor necrosis factor ligand …: MAMMEVQGGPSLGQTCVLIVIFTVLLQSLCVAVTYVYFTNELKQMQDKYSKSGIACFLKEDDSYWDPNDEESMNSPCWQVKWQLRQLVRKMILRTSEETISTVQEKQQNISPLVRERGPQRVAAHITGTRGRSNTLSSPNSKNEKALGRKINSWESSRSGHSFLSNLHLRNGELVIHEKGFYYIYSQTYFRFQEEIKERTHNDKQMVQYIYKYTSYPDPILLMKSARNSCWSKDAEYGLYSIYQGGIFELKENDRIFVSVTNEHLIDMDHEASFFGAFLVG
B16: K201H: TRAIL DR4 variant, WO 2009/066174 (protein, UniProt P50591 1-281, looked up, variant K201H)
Tumor necrosis factor ligand …: MAMMEVQGGPSLGQTCVLIVIFTVLLQSLCVAVTYVYFTNELKQMQDKYSKSGIACFLKEDDSYWDPNDEESMNSPCWQVKWQLRQLVRKMILRTSEETISTVQEKQQNISPLVRERGPQRVAAHITGTRGRSNTLSSPNSKNEKALGRKINSWESSRSGHSFLSNLHLRNGELVIHEKGFYYIYSQTYFRFQEEIKENTHNDKQMVQYIYKYTSYPDPILLMKSARNSCWSKDAEYGLYSIYQGGIFELKENDRIFVSVTNEHLIDMDHEASFFGAFLVG

Molecular target: DR4 (Homo sapiens, UniProt O00220)
Conditions: in words; known from WO 2009/066174, MacFarlane 2005; cited from earlier work

Molecule	affinity for DR4
B1	increased affinity for DR4
B2	increased affinity for DR4
B3	increased affinity for DR4
B4	increased affinity for DR4
B5	increased affinity for DR4
B6	increased affinity for DR4
B7	increased affinity for DR4
B8	increased affinity for DR4
B9	increased affinity for DR4
B10	increased affinity for DR4
B11	increased affinity for DR4
B12	increased affinity for DR4
B13	increased affinity for DR4
B14	increased affinity for DR4
B15	increased affinity for DR4
B16	increased affinity for DR4
